Data as given in patent EP3670537A1.

Target: Claudin 18 splice variant 2 (CLDN18.2) (human)
Test: cell-based or functional assay

## IMAB362 (antibody)
  in vitro EC50 concentration, CDC on CLDN18.2-transfected CHO-K1 cells: 0.5 µg/mL
  in vitro EC80-100, total cytotoxicity assay on NUGC-4 cells with healthy donor PBMCs (E:T 40:1) and 25% serum: 200 µg/mL
  lysis rate, CDC on CLDN18.2-transfected CHO-K1 cells, pooled sera from healthy controls with 0.5 µg/ml IMAB362: 64.5%
  lysis rate, CDC on CLDN18.2-transfected CHO-K1 cells, pre-infusion serum of patient 0204 with 0.5 µg/ml fresh IMAB362: 93.9%
  specific killing of NUGC-4 cells by IMAB362 in patient serum 28-32 days after administration, all dose groups: > 48%
